The data set is described as follows: yeast display, Sf9 membrane polyspecificity reagent, FACS + sequencing; frameworks hold sequencing errors. In outline: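 Using colony PCR, genes from sorted yeast display clones were amplified, then sequenced on MiSeq at 2 × 250 and filtered by CDR length. The clones had been stained with 10% biotinylated, detergent-solubilized Sf9 membrane reagent for 1 hour at 4 °C and sorted by FACS into low and high (top ~1%) gates on anti-HA and streptavidin fluorescence. Polyreactivity labels come from the gate of origin.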
For the sequence “QGQLVESGGGLVQEGGSLRLSCAASGRIFQNYAMGWYRQAPGKERELVATIDIGGSTKYADSVKGRFTISRDNAKNTVYLQMNSLKPEDTAVYYCNVPAFFYGYYRFDYWGQGTQVTVSS”, the “polyreactivity (PSR sort gate)” value is on record as “high polyreactivity”.

Regarding “QGQLVESRGGLVQAGGSLRLSCAASGFNLAYYAMGWYRQAPGKERELVAAISIGSSTDYADSVKGRFTISRDNAKNTVYLQMNSLKPEDTAVFYCAKRGPQVWTFDYDSWGQGTQVTVSS”, the “polyreactivity (PSR sort gate)” value is on record as “low polyreactivity”. “QGQLVESWGGLVQAGGSLRLSCAATRRTFLYYVMGWYRQAPGKETELVAAITNRGGSTYYADSVKGRFTISRDNAKNNVYVLMKSLKQEDTAVYYSNAPYGVYWSSTYYFWGQGTQVTVSS”: the “polyreactivity (PSR sort gate)” value is reported as “high polyreactivity”. Regarding “QGQLVQSGVGLVQAGGILRLSCASSGITFASYAMGWYRPAPGKEMELVATITTGGTNTYYADSVKARFTISRDNAKNTVYLQMNSLKPEDTAVYSSAADSTQYVLSGNYDYWGQGTQVTVSS”, the “polyreactivity (PSR sort gate)” value is given as “low polyreactivity”. For the sequence “QGQLVVSGGGLVQAGGSLRLSCAASGRISSSYAMGWYRQAPGKEREFVAAIRSSGGSTYYADSVKGRFTISRDYAKNTVYLQMISLKPVDTAVYYCNKVGFYQSRKYYYWGQATQVTVSS”, the “polyreactivity (PSR sort gate)” value is “high polyreactivity”. Regarding “QHQIVESGGGLVQAGGSLRLSCAASGSTIYRYAMGWYRQAPGKERELVAAISSSGGSTYYADSVKGRFTISRDNAKNTVYLQMNSLKPEDTAVYYCNAADRVRRFDYWGQGTQVTVSS”, the “polyreactivity (PSR sort gate)” value is reported as “low polyreactivity”.

Regarding “QIHLVESGGGLVQAGGSLRLSCAASGGIFYINAMGWYRQAPGKEREFVAAITESSDITYYADSVKGRFTISRDNAKNTVYLQMNSLKPEDSAVYYCAAEFVRSGDDYWGQGTQVTVSS”, the “polyreactivity (PSR sort gate)” value is recorded as “low polyreactivity”. Consider “QIQLEESGGGLVQAGGSLRLSCAASGSIFDYNTMGWYSQAPGKERELVAAISSSGGSTYYADSVKGRFTISRDNAKNSVYLQMNSLKPEDTAVYYCAAVNGYQYPPYYFNGYDYWGQGTQVTVSS”, for which the “polyreactivity (PSR sort gate)” value is given as “low polyreactivity”. As to “QIQLVESGGGLVQAGGSLRLSCAASGRIFFRNAMGWYRQAPGKERELVAGITWSGGSTYYADSVKGRFTISRDNAKNTVYLQMNSLKPEDTAVYYCNAVWRYRVLCDYWGQGTQVTVSS”, the “polyreactivity (PSR sort gate)” value was “high polyreactivity”.

As to “QIQLVESGGGLVQAGGSLRLSCAASGRTFYSYAMGWYRQAPGKERELVAAINRGASTYYADSVKGRFTISRDNAKNTVYFQMNSLKPEDTAVYYCNAQYYYIPSSTDYDYWGQGTQVTVSS”, the “polyreactivity (PSR sort gate)” value was “high polyreactivity”.

Take “QIQLVESGGGLVQAGGSLRLSCAASGSTLPDYAMGWYRQAPGKERELVADITARGGTYYADSVKGRFTISRDNAKNTVYLQMNSLKPEDTAVYYCAARISGRWYEYWGQGTQVTVSS”: the “polyreactivity (PSR sort gate)” value is given as “high polyreactivity”. On to “QLLLQESVGGLVQAGGSLRLSCAASGSIFLFYTMGAYRQAPVKELEFVAGITLGTTTYNADSVKGRFTISRDNVKNTVYLQMNSLKPEDTAVYYCAVAVGHYTEFWYWGQGTQVTMSS”, for which the “polyreactivity (PSR sort gate)” value is “high polyreactivity”. Take “QLQHVESGGGLVQAGGSLRLSCADSGRTFQYYAMGSYRQPPGKESELVAAINTSGGRTSYADSVKGRFTISRDNAKNTVYLQMNILKPEDTAVYYCAAKPFSYVYSSYYYWGQGTQVTVSS”: the “polyreactivity (PSR sort gate)” value is “high polyreactivity”. Take “QLQHVESWGGLVQAGGSLRLSCAASGRTFRANDKRSYRQAPGKQSELVAAISQSGGSRYYADSVKGRFTISRDNAKNTVYLQLNSLKPEDTAVYYCNALGRISNHTLYDYWGQGTQVTVSS”: the “polyreactivity (PSR sort gate)” value is “low polyreactivity”. “QLQLEESAGGLVQAGGSLRLSCAASGSIFGPYAMGSYSQAPGKERELVAAITWSGDSTYYADSVKGRFTISRDNAKNTVYLQMNSLKPEDTAVSYCNADWGQGTQVTVSS”: the “polyreactivity (PSR sort gate)” value is given as “low polyreactivity”. With “QLQLEESGGGLVQAGGSLSLRCAASGRIFSRYPMGWYRQAPGKERELVAAISSRAGSTYYADSVKGRFTISRDNAKNTVYLQMNSLKPEDTAVYYCNNPSYSCSSPYDHWGQGTQVTVSS”, the “polyreactivity (PSR sort gate)” value is “high polyreactivity”.

Regarding “QLQLEESRGGLVQAGGSLRLSCAASGGTCFSYAMGCYRQAPGKERELVAGIRNGGSTKYADSVKGRFTISRDNAKNTVYLQMNSLNPEDTAVYYCAARYYRPYTSSWAHNYRLDYCGQGTQVTVSS”, the “polyreactivity (PSR sort gate)” value was “high polyreactivity”. With “QLQLGESGGGLVQAGASLRLSFAPSGRLFDRYAMGWYRTAPATERELVASIRSGGSTNYADSVKGRFTISRDNAKNTGYLQMNSLNPEDTAVYYCAAVLRPVRFYSGYYYWGQGTQVTVSS”, the “polyreactivity (PSR sort gate)” value was “high polyreactivity”. The same measure for “QLQLHESGGGLVQAGGGLRLICAASGSISSTVFMGWYRQAPGKEREPVAAIAPCTTTYYADSLKGRFTISRDNAKNTVYLQKNSLRPEDTAVYYCAVFTDNRVAFLYWGQGTQVTLSS”: “low polyreactivity”; for “QLQLQESGGGLVQAGGSLRLSCAESGTIFGWDRMGRYRQAPGKERELVATIDNRGSTNYADSVKGRFTISRDNAKNTLFPQMNSLKPDDTEVYYCAVVGPTPQYHLYWGEGTQVTVSS”: “high polyreactivity”; for “QLQLVESAGGLVQAGGSLRLSCAASGIIFSYYAMGWYRKAPGKERELVAAISWSGGSTYYADSVKGRFTISRDNAKNTVYLQLNSLKPEDTAVYYCAADDYLAYEYWGQGTQVTVSS”: “high polyreactivity”. With “QLQLVESGGGIVQAGGRLRLSCAASGLIFYLYAMGWYRQAPGKERELVATITTGGRTNYADSVKGRFTISRDNAKISVYLQMNSLTPVDTAVYYCAATHRGQGGYYWGQGSQVTVSS”, the “polyreactivity (PSR sort gate)” value is reported as “low polyreactivity”. Take “QLQLVESGGGIVQAGGSLRLSCAASGSTFLRNAMGRYRQAPGKKGSGVATISYDGYSTYYADSVKGRLTISRDNAKNSFYLQMNSLKPEDTAVYYCAASYSLTFWDKDDYWGQGSQVTVSS”: the “polyreactivity (PSR sort gate)” value is reported as “low polyreactivity”. In the case of “QLQLVESGGGLDQAGGSLRLSCAASAFTFGYYSKGWNRQAPGKQTELVASISRSGGSTNYADSVKGRFTISRDNAKKTVYLQMNSLIPEDNAVYYCNNRVNTYRSVSRRYDYWGQGTQVTLSS”, the “polyreactivity (PSR sort gate)” value was “high polyreactivity”. Regarding “QLQLVESGGGLVQAGARLRLSCAASGSIFRFNPMGWYIPAPGKERELVAAITSSGDSTYYADSVKGRFTISRDNAKYTVYLQMNCLKPEDTAVSDCAAVRNRFIGWTVRYNWARIYNYWGQGTQVTVSS”, the “polyreactivity (PSR sort gate)” value is “high polyreactivity”. In the case of “QLQLVESGGGLVQAGCSLRLSFAASVIICWANAMGCYIHAPGKERELVASITSGGSTYYADSVKGRFTISRDNAKTTVYFQMNSLKPEDTAVYYCAADPYGWWDWHTLGTYDYWGQGTQVTVSS”, the “polyreactivity (PSR sort gate)” value is on record as “low polyreactivity”. Turning to “QLQLVESGGGLVQAGGRLRLTCAASGRTFPYYFMGWYRPAPGKERELVAAINSGGRTNYADSVKGLFTISRDNAKNTVYLQMNSLKPEDTAVYYCTKRGHPARLGYYYWGQGTQVTVSS”, the “polyreactivity (PSR sort gate)” value is given as “low polyreactivity”. With “QLQLVESGGGLVQAGGSLRISCAASGFTFRYYAMGWYRQAPGKERKFVAGIDFGAITNYADSVKGRFTISRDNAKNTEYLQMSSLKPEDTAVYYCAAGVYDWYAYDYWGQGTQVTVSS” the entry was “high polyreactivity”. “QLQLVESGGGLVQAGGSLRLICAASGLIFFWYTMGWYRQAPGKDRELVAAIDSGGSTYYADSVKGRFTNSRDNAKYTVYLEMISLKPEDTAVYYCAADSFYLYIEYYYWGQGTQVTVSS”: the “polyreactivity (PSR sort gate)” value is recorded as “high polyreactivity”. The same measure for “QLQLVESGGGLVQAGGSLRLICAASGRIFATYAMGWYRQAPGKEREFVAAITKGGVRTYYADSVKGRFTISRDNAKNTVYLQMNSLKPEDTAVYYCAADAWVRGRYPYGYDYWGQGTQVTVSS”: “low polyreactivity”.

The values above are taken from the nanobody polyreactivity screen of Harvey et al. (2022).
